US20260209293A1 (Novo Nordisk, published 2026)
*1 amine or outer side, *2 acyl side, *3 side chain or, on linkers, in order; H or OH if unused. The star is where a group is joined. C18 diacid = O=C(O)CCCCCCCCCCCCCCCCC(=O)*; γGlu = O=C(O)[C@H](CCC(=O)[*:2])N[*:1]

T1: human calcitonin receptor (a) (human, UniProt P30988 25-474)
T1 sequence (looked up): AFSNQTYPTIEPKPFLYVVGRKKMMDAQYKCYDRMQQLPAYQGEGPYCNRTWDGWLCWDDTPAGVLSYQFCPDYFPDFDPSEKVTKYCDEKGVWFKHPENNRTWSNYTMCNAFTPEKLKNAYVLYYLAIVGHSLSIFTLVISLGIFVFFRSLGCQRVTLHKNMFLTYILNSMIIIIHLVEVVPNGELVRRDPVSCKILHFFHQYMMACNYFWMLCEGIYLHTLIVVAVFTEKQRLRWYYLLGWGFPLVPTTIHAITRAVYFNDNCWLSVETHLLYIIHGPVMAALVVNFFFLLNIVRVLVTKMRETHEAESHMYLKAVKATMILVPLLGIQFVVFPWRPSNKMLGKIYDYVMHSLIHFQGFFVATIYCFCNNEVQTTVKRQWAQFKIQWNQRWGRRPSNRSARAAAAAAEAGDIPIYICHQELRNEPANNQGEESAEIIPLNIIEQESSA

T2: human amylin-3(a) receptor (human, UniProt P30988 25-474; O60896 24-148)
T2 sequence (looked up) 1: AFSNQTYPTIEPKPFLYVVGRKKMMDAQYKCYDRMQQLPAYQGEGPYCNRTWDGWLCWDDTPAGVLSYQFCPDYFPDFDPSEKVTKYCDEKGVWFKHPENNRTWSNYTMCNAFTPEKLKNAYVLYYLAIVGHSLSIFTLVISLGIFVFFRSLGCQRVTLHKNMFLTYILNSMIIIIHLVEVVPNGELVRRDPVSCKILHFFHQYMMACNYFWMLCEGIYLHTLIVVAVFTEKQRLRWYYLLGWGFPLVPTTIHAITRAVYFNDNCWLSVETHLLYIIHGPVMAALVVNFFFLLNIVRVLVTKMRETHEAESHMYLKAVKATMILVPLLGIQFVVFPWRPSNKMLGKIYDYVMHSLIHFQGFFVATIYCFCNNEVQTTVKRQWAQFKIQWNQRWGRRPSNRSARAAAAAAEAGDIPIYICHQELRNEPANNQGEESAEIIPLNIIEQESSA
T2 sequence (looked up) 2: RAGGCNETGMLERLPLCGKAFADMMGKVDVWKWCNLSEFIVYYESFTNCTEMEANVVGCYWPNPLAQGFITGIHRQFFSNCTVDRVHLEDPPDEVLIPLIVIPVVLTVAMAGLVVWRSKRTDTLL


How the values were obtained:
[1] = target: T1, human calcitonin receptor (a); assay: cell-based or functional assay
[2] = target: T2, human amylin-3(a) receptor; assay: cell-based or functional assay

| hCalcR potency, EC50 (pM); CRE-luciferase reporter in BHK cells [1] | hAmyR3 potency, EC50 (pM); CRE-luciferase reporter in BHK cells [2] | Binder |
| --- | --- | --- |
| 1.86 pM | 1.22 pM | {C18 diacid-γGlu}-ASQLSTAQTARLAEFLHHSSDNFGPILPPTDVGSNTP-NH2 (SMILES CC[C@H](C)[C@H](NC(=O)[C@@H]1CCCN1C(=O)CNC(=O)[C@H](Cc1ccccc1)NC(=O)[C@H](CC(N)=O)NC(=O)[C@H](CC(=O)O)NC(=O)[C@H](CO)NC(=O)[C@H](CO)NC(=O)[C@H](Cc1c[nH]cn1)NC(=O)[C@H](Cc1c[nH]cn1)NC(=O)[C@H](CC(C)C)NC(=O)[C@H](Cc1ccccc1)NC(=O)[C@H](CCC(=O)O)NC(=O)[C@H](C)NC(=O)[C@H](CC(C)C)NC(=O)[C@H](CCCNC(=N)N)NC(=O)[C@H](C)NC(=O)[C@@H](NC(=O)[C@H](CCC(N)=O)NC(=O)[C@H](C)NC(=O)[C@@H](NC(=O)[C@H](CO)NC(=O)[C@H](CC(C)C)NC(=O)[C@H](CCC(N)=O)NC(=O)[C@H](CO)NC(=O)[C@H](C)NC(=O)CC[C@H](NC(=O)CCCCCCCCCCCCCCCCC(=O)O)C(=O)O)[C@@H](C)O)[C@@H](C)O)C(=O)N[C@@H](CC(C)C)C(=O)N1CCC[C@H]1C(=O)N1CCC[C@H]1C(=O)N[C@H](C(=O)N[C@@H](CC(=O)O)C(=O)N[C@H](C(=O)NCC(=O)N[C@@H](CO)C(=O)N[C@@H](CC(N)=O)C(=O)N[C@H](C(=O)N1CCC[C@H]1C(N)=O)[C@@H](C)O)C(C)C)[C@@H](C)O) |
| 1.58 pM | 1.62 pM | {C18 diacid-γGlu}-ASALSTAQTARLAEFLHHSSDNFGPILPPTDVGSNTP-NH2 (SMILES CC[C@H](C)[C@H](NC(=O)[C@@H]1CCCN1C(=O)CNC(=O)[C@H](Cc1ccccc1)NC(=O)[C@H](CC(N)=O)NC(=O)[C@H](CC(=O)O)NC(=O)[C@H](CO)NC(=O)[C@H](CO)NC(=O)[C@H](Cc1c[nH]cn1)NC(=O)[C@H](Cc1c[nH]cn1)NC(=O)[C@H](CC(C)C)NC(=O)[C@H](Cc1ccccc1)NC(=O)[C@H](CCC(=O)O)NC(=O)[C@H](C)NC(=O)[C@H](CC(C)C)NC(=O)[C@H](CCCNC(=N)N)NC(=O)[C@H](C)NC(=O)[C@@H](NC(=O)[C@H](CCC(N)=O)NC(=O)[C@H](C)NC(=O)[C@@H](NC(=O)[C@H](CO)NC(=O)[C@H](CC(C)C)NC(=O)[C@H](C)NC(=O)[C@H](CO)NC(=O)[C@H](C)NC(=O)CC[C@H](NC(=O)CCCCCCCCCCCCCCCCC(=O)O)C(=O)O)[C@@H](C)O)[C@@H](C)O)C(=O)N[C@@H](CC(C)C)C(=O)N1CCC[C@H]1C(=O)N1CCC[C@H]1C(=O)N[C@H](C(=O)N[C@@H](CC(=O)O)C(=O)N[C@H](C(=O)NCC(=O)N[C@@H](CO)C(=O)N[C@@H](CC(N)=O)C(=O)N[C@H](C(=O)N1CCC[C@H]1C(N)=O)[C@@H](C)O)C(C)C)[C@@H](C)O) |
| 2.19 pM | 1.31 pM | {C18 diacid-γGlu}-ASHLSTAQTQRLAEFLHHSSDPFGAIPSSTDVGPNTP-NH2 (SMILES CC[C@H](C)[C@H](NC(=O)[C@H](C)NC(=O)CNC(=O)[C@H](Cc1ccccc1)NC(=O)[C@@H]1CCCN1C(=O)[C@H](CC(=O)O)NC(=O)[C@H](CO)NC(=O)[C@H](CO)NC(=O)[C@H](Cc1c[nH]cn1)NC(=O)[C@H](Cc1c[nH]cn1)NC(=O)[C@H](CC(C)C)NC(=O)[C@H](Cc1ccccc1)NC(=O)[C@H](CCC(=O)O)NC(=O)[C@H](C)NC(=O)[C@H](CC(C)C)NC(=O)[C@H](CCCNC(=N)N)NC(=O)[C@H](CCC(N)=O)NC(=O)[C@@H](NC(=O)[C@H](CCC(N)=O)NC(=O)[C@H](C)NC(=O)[C@@H](NC(=O)[C@H](CO)NC(=O)[C@H](CC(C)C)NC(=O)[C@H](Cc1c[nH]cn1)NC(=O)[C@H](CO)NC(=O)[C@H](C)NC(=O)CC[C@H](NC(=O)CCCCCCCCCCCCCCCCC(=O)O)C(=O)O)[C@@H](C)O)[C@@H](C)O)C(=O)N1CCC[C@H]1C(=O)N[C@@H](CO)C(=O)N[C@@H](CO)C(=O)N[C@H](C(=O)N[C@@H](CC(=O)O)C(=O)N[C@H](C(=O)NCC(=O)N1CCC[C@H]1C(=O)N[C@@H](CC(N)=O)C(=O)N[C@H](C(=O)N1CCC[C@H]1C(N)=O)[C@@H](C)O)C(C)C)[C@@H](C)O) |
| 1.5 pM | 1.27 pM | {C18 diacid-γGlu}-ASHLSTAQTARLAEFLHHSSDPFGAIPSSTDVGPDTP-NH2 (SMILES CC[C@H](C)[C@H](NC(=O)[C@H](C)NC(=O)CNC(=O)[C@H](Cc1ccccc1)NC(=O)[C@@H]1CCCN1C(=O)[C@H](CC(=O)O)NC(=O)[C@H](CO)NC(=O)[C@H](CO)NC(=O)[C@H](Cc1c[nH]cn1)NC(=O)[C@H](Cc1c[nH]cn1)NC(=O)[C@H](CC(C)C)NC(=O)[C@H](Cc1ccccc1)NC(=O)[C@H](CCC(=O)O)NC(=O)[C@H](C)NC(=O)[C@H](CC(C)C)NC(=O)[C@H](CCCNC(=N)N)NC(=O)[C@H](C)NC(=O)[C@@H](NC(=O)[C@H](CCC(N)=O)NC(=O)[C@H](C)NC(=O)[C@@H](NC(=O)[C@H](CO)NC(=O)[C@H](CC(C)C)NC(=O)[C@H](Cc1c[nH]cn1)NC(=O)[C@H](CO)NC(=O)[C@H](C)NC(=O)CC[C@H](NC(=O)CCCCCCCCCCCCCCCCC(=O)O)C(=O)O)[C@@H](C)O)[C@@H](C)O)C(=O)N1CCC[C@H]1C(=O)N[C@@H](CO)C(=O)N[C@@H](CO)C(=O)N[C@H](C(=O)N[C@@H](CC(=O)O)C(=O)N[C@H](C(=O)NCC(=O)N1CCC[C@H]1C(=O)N[C@@H](CC(=O)O)C(=O)N[C@H](C(=O)N1CCC[C@H]1C(N)=O)[C@@H](C)O)C(C)C)[C@@H](C)O) |
| 1.89 pM | 1.64 pM | {C18 diacid-γGlu}-ASHLSTAQTQRLAEFLHHSSDNFGPILPPTDVGSNTP-NH2 (SMILES CC[C@H](C)[C@H](NC(=O)[C@@H]1CCCN1C(=O)CNC(=O)[C@H](Cc1ccccc1)NC(=O)[C@H](CC(N)=O)NC(=O)[C@H](CC(=O)O)NC(=O)[C@H](CO)NC(=O)[C@H](CO)NC(=O)[C@H](Cc1c[nH]cn1)NC(=O)[C@H](Cc1c[nH]cn1)NC(=O)[C@H](CC(C)C)NC(=O)[C@H](Cc1ccccc1)NC(=O)[C@H](CCC(=O)O)NC(=O)[C@H](C)NC(=O)[C@H](CC(C)C)NC(=O)[C@H](CCCNC(=N)N)NC(=O)[C@H](CCC(N)=O)NC(=O)[C@@H](NC(=O)[C@H](CCC(N)=O)NC(=O)[C@H](C)NC(=O)[C@@H](NC(=O)[C@H](CO)NC(=O)[C@H](CC(C)C)NC(=O)[C@H](Cc1c[nH]cn1)NC(=O)[C@H](CO)NC(=O)[C@H](C)NC(=O)CC[C@H](NC(=O)CCCCCCCCCCCCCCCCC(=O)O)C(=O)O)[C@@H](C)O)[C@@H](C)O)C(=O)N[C@@H](CC(C)C)C(=O)N1CCC[C@H]1C(=O)N1CCC[C@H]1C(=O)N[C@H](C(=O)N[C@@H](CC(=O)O)C(=O)N[C@H](C(=O)NCC(=O)N[C@@H](CO)C(=O)N[C@@H](CC(N)=O)C(=O)N[C@H](C(=O)N1CCC[C@H]1C(N)=O)[C@@H](C)O)C(C)C)[C@@H](C)O) |
| 1.56 pM | 1.49 pM | {C18 diacid-γGlu}-ASQLSTAQTQRLAEFLHHSSDPFGAIPSSTDVGPDTP-NH2 (SMILES CC[C@H](C)[C@H](NC(=O)[C@H](C)NC(=O)CNC(=O)[C@H](Cc1ccccc1)NC(=O)[C@@H]1CCCN1C(=O)[C@H](CC(=O)O)NC(=O)[C@H](CO)NC(=O)[C@H](CO)NC(=O)[C@H](Cc1c[nH]cn1)NC(=O)[C@H](Cc1c[nH]cn1)NC(=O)[C@H](CC(C)C)NC(=O)[C@H](Cc1ccccc1)NC(=O)[C@H](CCC(=O)O)NC(=O)[C@H](C)NC(=O)[C@H](CC(C)C)NC(=O)[C@H](CCCNC(=N)N)NC(=O)[C@H](CCC(N)=O)NC(=O)[C@@H](NC(=O)[C@H](CCC(N)=O)NC(=O)[C@H](C)NC(=O)[C@@H](NC(=O)[C@H](CO)NC(=O)[C@H](CC(C)C)NC(=O)[C@H](CCC(N)=O)NC(=O)[C@H](CO)NC(=O)[C@H](C)NC(=O)CC[C@H](NC(=O)CCCCCCCCCCCCCCCCC(=O)O)C(=O)O)[C@@H](C)O)[C@@H](C)O)C(=O)N1CCC[C@H]1C(=O)N[C@@H](CO)C(=O)N[C@@H](CO)C(=O)N[C@H](C(=O)N[C@@H](CC(=O)O)C(=O)N[C@H](C(=O)NCC(=O)N1CCC[C@H]1C(=O)N[C@@H](CC(=O)O)C(=O)N[C@H](C(=O)N1CCC[C@H]1C(N)=O)[C@@H](C)O)C(C)C)[C@@H](C)O) |
